Our source for the increase in intracellular calcium (Calcium Green-1, FLIPR) values is patent US20040132187A1.

In the assay the target is endogenous bradykinin receptor of α7/5-HT3-SH-EP1 cells. Put plainly: cell-based or functional assay.

Consider “bradykinin (from UniProt P01042 381-389) (peptide)”, for which the increase in intracellular calcium (Calcium Green-1, FLIPR) was found to be 100 nM.
